Molecular target: T1, YanA86D (monomer) (UniProt Q01842 1-499, A86D)
T1 sequence: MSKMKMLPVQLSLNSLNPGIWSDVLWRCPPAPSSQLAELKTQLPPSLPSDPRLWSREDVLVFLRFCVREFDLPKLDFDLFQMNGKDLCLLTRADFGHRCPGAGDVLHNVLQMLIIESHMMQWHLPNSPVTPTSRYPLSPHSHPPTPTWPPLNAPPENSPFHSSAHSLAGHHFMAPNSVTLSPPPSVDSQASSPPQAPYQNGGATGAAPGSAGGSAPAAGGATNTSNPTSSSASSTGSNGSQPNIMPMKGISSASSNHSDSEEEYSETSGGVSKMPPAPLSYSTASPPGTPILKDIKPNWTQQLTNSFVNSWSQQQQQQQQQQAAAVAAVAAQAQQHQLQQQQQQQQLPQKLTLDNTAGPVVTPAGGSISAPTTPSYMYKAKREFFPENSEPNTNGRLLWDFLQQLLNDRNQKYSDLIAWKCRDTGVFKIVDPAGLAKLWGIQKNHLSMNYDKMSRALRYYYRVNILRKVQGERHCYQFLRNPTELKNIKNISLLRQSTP
Assay: competition

B1: MHE ETS site 6 (dsDNA)
DNA 1: AAATGCTTAAACAGGGAAATCGTCTTGG
DNA 2: CCAAGACGATTTCCCTGTTTAAGCATTT
B1: no binding.

Source: PMC5900712
